From PMC8092224

Target: RBD-ferritin fusion protein (SARS-CoV-2 spike RBD-… linker-H. pylori-bullfrog ferritin) (SARS-CoV-2 Wuhan-Hu-1 strain | bullfrog (Rana catesbeiana) | Helicobacter pylori)
Assay: SEC; concentrated supernatant (500-kDa MWCO TFF) on HiPrep 16/60 Sephacryl S-500 HR, degassed PBS, 0.4 ml/min; size from LMW/HMW calibration standards; self-assembly of the monomer into the nanoparticle

## RBD-ferritin fusion protein (SARS-CoV-2 spike RBD-… linker-H. pylori-bullfrog ferritin)
  stoichiometry N: 24
